23 sequences from EP1073891B1, “METHOD OF PREDICTING RECEPTOR MODULATING ACTIVITY” (Duke University, priority 1998, dated 1999) can be followed below.

For one assay, the target named is ERβ (Homo sapiens, UniProt Q92731). The experiment in a line: Phage ELISA / fingerprint on ER immobilized on biotinylated ERE (Examples 2.3-2.5). Type of assay: binding. Also noted: purchased PanVera Corporation, Madison, WI; key: semiquantitative scale of 0 to 7+; 1+: semiquantitative scale of 0 to 7+; 2+: semiquantitative scale of 0 to 7+; 3+: semiquantitative scale of 0 to 7+; 4+: semiquantitative scale of 0 to 7+; 5+: semiquantitative scale of 0 to 7+; 6+: semiquantitative scale of 0 to 7+; semiquantitative scale of 0 to 7+. To be noted: for binding activity, ERβ and Estradiol: ERβ and Estradiol (1 µM); for binding activity, ERβ and tamoxifen: ERβ and tamoxifen (4-OH tamoxifen, 1 µM).

The target of the next assay is T1, ERα (Homo sapiens, UniProt P03372).
T1 sequence (P03372 1-595): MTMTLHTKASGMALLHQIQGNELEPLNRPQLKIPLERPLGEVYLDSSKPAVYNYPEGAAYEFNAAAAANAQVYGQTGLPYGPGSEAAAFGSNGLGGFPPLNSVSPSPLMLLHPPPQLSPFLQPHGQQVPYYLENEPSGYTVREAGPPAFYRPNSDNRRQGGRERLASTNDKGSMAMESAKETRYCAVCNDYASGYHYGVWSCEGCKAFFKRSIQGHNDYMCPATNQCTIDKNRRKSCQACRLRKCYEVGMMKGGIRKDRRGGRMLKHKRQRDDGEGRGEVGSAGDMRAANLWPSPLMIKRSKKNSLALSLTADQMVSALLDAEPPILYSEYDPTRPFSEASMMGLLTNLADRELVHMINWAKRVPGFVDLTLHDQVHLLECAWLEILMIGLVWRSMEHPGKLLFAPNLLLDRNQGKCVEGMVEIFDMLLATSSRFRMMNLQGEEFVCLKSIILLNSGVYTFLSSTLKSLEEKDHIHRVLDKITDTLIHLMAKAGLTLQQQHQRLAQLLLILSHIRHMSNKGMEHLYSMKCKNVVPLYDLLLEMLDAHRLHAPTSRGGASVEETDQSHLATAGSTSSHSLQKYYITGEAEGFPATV
The description is as above. Type of assay: binding. The following applies: for binding activity, ERα and estradiol: ERα and estradiol (1 µM); for binding activity, ERα and tamoxifen: ERα and tamoxifen (4-OH tamoxifen, 1 µM). Also noted: purchased PanVera Corporation, Madison, WI; key to binding activity, ERα and buffer / binding activity, ERα and estradiol / binding activity, ERα and tamoxifen / binding of peptide, Class Specific Fingerprint on ERα: semiquantitative scale of 0 to 7+; 1+: semiquantitative scale of 0 to 7+; 2+: semiquantitative scale of 0 to 7+; 3+: semiquantitative scale of 0 to 7+; 4+: semiquantitative scale of 0 to 7+; 5+: semiquantitative scale of 0 to 7+; 6+: semiquantitative scale of 0 to 7+; semiquantitative scale of 0 to 7+.

Chain of ERβ (Q92731 whole entry): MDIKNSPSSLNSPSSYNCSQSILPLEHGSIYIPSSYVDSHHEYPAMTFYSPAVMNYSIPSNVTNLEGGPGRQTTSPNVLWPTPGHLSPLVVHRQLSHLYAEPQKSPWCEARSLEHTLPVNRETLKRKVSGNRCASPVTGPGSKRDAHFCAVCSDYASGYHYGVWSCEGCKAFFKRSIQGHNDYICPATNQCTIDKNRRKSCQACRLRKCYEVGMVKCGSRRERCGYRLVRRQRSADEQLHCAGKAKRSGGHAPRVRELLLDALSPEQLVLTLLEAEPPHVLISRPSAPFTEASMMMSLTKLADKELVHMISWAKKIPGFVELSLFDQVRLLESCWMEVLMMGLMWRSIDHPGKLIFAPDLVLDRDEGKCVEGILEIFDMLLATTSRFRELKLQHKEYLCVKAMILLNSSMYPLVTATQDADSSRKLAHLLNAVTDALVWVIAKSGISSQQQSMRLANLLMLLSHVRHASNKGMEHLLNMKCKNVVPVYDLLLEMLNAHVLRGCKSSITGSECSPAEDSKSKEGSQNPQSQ

In the case of SSKLYCLLDESYCSR [Peptide 21b-β], in the assay with ERβ, the “binding activity, ERβ and Estradiol” value was 7+; the “binding activity, ERβ and buffer” value is reported as 7+; the “binding activity, ERβ and tamoxifen” value is recorded as 3+. For the same sequence, in the assay with ERα, the “binding activity, ERα and buffer” value is 6+; the “binding activity, ERα and estradiol” value is on record as 7+; the “binding activity, ERα and tamoxifen” value is 3+.

Regarding SSLDLSQFPMTASFLRESR [Peptide 35E-β], in the assay with ERβ, the “binding activity, ERβ and Estradiol” value was 6+; the “binding activity, ERβ and buffer” value is given as 2+; the “binding activity, ERβ and tamoxifen” value was 1+. In the assay with ERα, the “binding activity, ERα and buffer” value is listed as 2+; the “binding activity, ERα and estradiol” value is reported as 2+; the “binding activity, ERα and tamoxifen” value is 2+.

Take SSLKCLLNSNFCSR [Peptide 18E-β]: in the assay with ERβ, the “binding activity, ERβ and Estradiol” value is 7+; the “binding activity, ERβ and buffer” value was 4+; the “binding activity, ERβ and tamoxifen” value is given as 1+. In the assay with ERα, the “binding activity, ERα and buffer” value is 5+; the “binding activity, ERα and estradiol” value is on record as 6+; the “binding activity, ERα and tamoxifen” value is 5+.

Turning to SSLKCLLQSSPQKQPFCSR [Peptide 19E-β], in the assay with ERβ, the “binding activity, ERβ and Estradiol” value was 7+; the “binding activity, ERβ and buffer” value was 4+; the “binding activity, ERβ and tamoxifen” value is reported as 2+. Besides, in the assay with ERα, the “binding activity, ERα and buffer” value is reported as 4+; the “binding activity, ERα and estradiol” value is recorded as 5+; the “binding activity, ERα and tamoxifen” value is recorded as 3+.

In the case of SSLQAGSWLMHYLRGGDSR [Peptide 23E-β], in the assay with ERβ, the “binding activity, ERβ and Estradiol” value was 7+; the “binding activity, ERβ and buffer” value is recorded as 5+; the “binding activity, ERβ and tamoxifen” value is reported as 2+. Also, in the assay with ERα, the “binding activity, ERα and buffer” value is 6+; the “binding activity, ERα and estradiol” value is recorded as 6+; the “binding activity, ERα and tamoxifen” value is listed as 5+.

For SSPGSREWFKDMLSR [Peptide 14t-β], in the assay with ERβ, the “binding activity, ERβ and Estradiol” value is on record as 2+; the “binding activity, ERβ and buffer” value is 3+; the “binding activity, ERβ and tamoxifen” value was 7+. In addition, in the assay with ERα, the “binding activity, ERα and buffer” value is on record as 2+; the “binding activity, ERα and estradiol” value is 2+; the “binding activity, ERα and tamoxifen” value is reported as 7+.

As for SSPTGHRLLESLLLNSNSR [Peptide 8E-β], in the assay with ERβ, the “binding activity, ERβ and Estradiol” value is 7+; the “binding activity, ERβ and buffer” value was 5+; the “binding activity, ERβ and tamoxifen” value was 1+. In the assay with ERα, the “binding activity, ERα and buffer” value is listed as 4+; the “binding activity, ERα and estradiol” value is 6+; the “binding activity, ERα and tamoxifen” value is reported as 3+.

As for SSQEEWLLPWRLASR [Peptide 8t-β], in the assay with ERβ, the “binding activity, ERβ and Estradiol” value was 5+; the “binding activity, ERβ and buffer” value is listed as 7+; the “binding activity, ERβ and tamoxifen” value is on record as 5+. For the same sequence, in the assay with ERα, the “binding activity, ERα and buffer” value is 2+; the “binding activity, ERα and estradiol” value is listed as 2+; the “binding activity, ERα and tamoxifen” value is listed as 2+.

On to SSQVWPGPWRLVESR [Peptide 14b-β], for which, in the assay with ERβ, the “binding activity, ERβ and Estradiol” value is listed as 7+; the “binding activity, ERβ and buffer” value is given as 7+; the “binding activity, ERβ and tamoxifen” value is given as 7+. For the same sequence, in the assay with ERα, the “binding activity, ERα and buffer” value was 2+; the “binding activity, ERα and estradiol” value is reported as 2+; the “binding activity, ERα and tamoxifen” value is recorded as 3+.

Consider SSQWQAPWWYIDASR [Peptide 32E-β], for which, in the assay with ERβ, the “binding activity, ERβ and Estradiol” value was 7+; the “binding activity, ERβ and buffer” value was 5+; the “binding activity, ERβ and tamoxifen” value is listed as 2+. Moreover, in the assay with ERα, the “binding activity, ERα and buffer” value was 5+; the “binding activity, ERα and estradiol” value was 4+; the “binding activity, ERα and tamoxifen” value is reported as 4+.

As for SSRCSSLLCEMLIQTKESR [Peptide 22E-β], in the assay with ERβ, the “binding activity, ERβ and Estradiol” value was 7+; the “binding activity, ERβ and buffer” value is on record as 5+; the “binding activity, ERβ and tamoxifen” value is listed as 2+. Also, in the assay with ERα, the “binding activity, ERα and buffer” value was 4+; the “binding activity, ERα and estradiol” value was 5+; the “binding activity, ERα and tamoxifen” value was 3+.

As to SSRGLLWDLLTKDSR [Peptide 1E-β], in the assay with ERβ, the “binding activity, ERβ and Estradiol” value is on record as 7+; the “binding activity, ERβ and buffer” value was 5+; the “binding activity, ERβ and tamoxifen” value is 3+. For the same sequence, in the assay with ERα, the “binding activity, ERα and buffer” value is recorded as 5+; the “binding activity, ERα and estradiol” value is reported as 7+; the “binding activity, ERα and tamoxifen” value is on record as 5+.

Consider SSRLLCLLDAGQCSR [Peptide 16E-β], for which, in the assay with ERβ, the “binding activity, ERβ and Estradiol” value is 7+; the “binding activity, ERβ and buffer” value is 6+; the “binding activity, ERβ and tamoxifen” value is listed as 2+. In the assay with ERα, the “binding activity, ERα and buffer” value is 3+; the “binding activity, ERα and estradiol” value is reported as 6+; the “binding activity, ERα and tamoxifen” value was 3+.

On to SSRLVPHSFWLDGLMHGSR [Peptide 21t-β], for which, in the assay with ERβ, the “binding activity, ERβ and Estradiol” value is on record as 3+; the “binding activity, ERβ and buffer” value is 3+; the “binding activity, ERβ and tamoxifen” value is recorded as 7+. Besides, in the assay with ERα, the “binding activity, ERα and buffer” value is reported as 3+; the “binding activity, ERα and estradiol” value is given as 3+; the “binding activity, ERα and tamoxifen” value is on record as 6+.

Consider SSRPSFTIPWWFDDPSRSR [Peptide 33E-β], for which, in the assay with ERβ, the “binding activity, ERβ and Estradiol” value is listed as 7+; the “binding activity, ERβ and buffer” value is given as 5+; the “binding activity, ERβ and tamoxifen” value was 2+. Moreover, in the assay with ERα, the “binding activity, ERα and buffer” value is on record as 3+; the “binding activity, ERα and estradiol” value is 3+; the “binding activity, ERα and tamoxifen” value was 2+.

As for SSRTLLEHYLLGGSR [Peptide 20E-β], in the assay with ERβ, the “binding activity, ERβ and Estradiol” value is on record as 7+; the “binding activity, ERβ and buffer” value is given as 3+; the “binding activity, ERβ and tamoxifen” value is 2+. In the assay with ERα, the “binding activity, ERα and buffer” value was 5+; the “binding activity, ERα and estradiol” value is reported as 5+; the “binding activity, ERα and tamoxifen” value is reported as 4+.

For the sequence SSRTLYCHLTSSNPEWCSR [Peptide 27E-β], in the assay with ERβ, the “binding activity, ERβ and Estradiol” value is given as 7+; the “binding activity, ERβ and buffer” value was 6+; the “binding activity, ERβ and tamoxifen” value is reported as 2+. In the assay with ERα, the “binding activity, ERα and buffer” value is reported as 4+; the “binding activity, ERα and estradiol” value was 6+; the “binding activity, ERα and tamoxifen” value was 3+.

For SSRTPILFSLLETSR [Peptide 11E-β], in the assay with ERβ, the “binding activity, ERβ and Estradiol” value is listed as 6+; the “binding activity, ERβ and buffer” value is 5+; the “binding activity, ERβ and tamoxifen” value is 4+. For the same sequence, in the assay with ERα, the “binding activity, ERα and buffer” value was 6+; the “binding activity, ERα and estradiol” value is on record as 5+; the “binding activity, ERα and tamoxifen” value was 6+.

Take SSSGPWRWGLSIESR [Peptide 17b-β]: in the assay with ERβ, the “binding activity, ERβ and Estradiol” value was 2+; the “binding activity, ERβ and buffer” value was 5+; the “binding activity, ERβ and tamoxifen” value was 4+. In the assay with ERα, the “binding activity, ERα and buffer” value is recorded as 2+; the “binding activity, ERα and estradiol” value is 2+; the “binding activity, ERα and tamoxifen” value was 3+.

In the case of SSSLGPWRLSELESR [Peptide 16b-β], in the assay with ERβ, the “binding activity, ERβ and Estradiol” value was 4+; the “binding activity, ERβ and buffer” value is given as 7+; the “binding activity, ERβ and tamoxifen” value was 5+. Besides, in the assay with ERα, the “binding activity, ERα and buffer” value is on record as 2+; the “binding activity, ERα and estradiol” value is listed as 3+; the “binding activity, ERα and tamoxifen” value is on record as 3+.

For the sequence SSSMMREFFERELSR [Peptide 5b-β], in the assay with ERβ, the “binding activity, ERβ and Estradiol” value is listed as 6+; the “binding activity, ERβ and buffer” value is reported as 7+; the “binding activity, ERβ and tamoxifen” value is recorded as 7+. Further, in the assay with ERα, the “binding activity, ERα and buffer” value is 6+; the “binding activity, ERα and estradiol” value is on record as 6+; the “binding activity, ERα and tamoxifen” value is reported as 7+.

With SSTRLMCWLGSADTSHCSR [Peptide 28E-β], in the assay with ERβ, the “binding activity, ERβ and Estradiol” value was 7+; the “binding activity, ERβ and buffer” value is on record as 3+; the “binding activity, ERβ and tamoxifen” value is given as 2+. Moreover, in the assay with ERα, the “binding activity, ERα and buffer” value is 4+; the “binding activity, ERα and estradiol” value is given as 3+; the “binding activity, ERα and tamoxifen” value is recorded as 3+.

On to SSTSWLHHYLMGTSR [Peptide 8b-β], for which, in the assay with ERβ, the “binding activity, ERβ and Estradiol” value is 7+; the “binding activity, ERβ and buffer” value was 7+; the “binding activity, ERβ and tamoxifen” value was 1+. In addition, in the assay with ERα, the “binding activity, ERα and buffer” value is given as 1+; the “binding activity, ERα and estradiol” value was 4+; the “binding activity, ERα and tamoxifen” value was 2+.
